Reference: FireProtDB (doi:10.1016/0022-2836(81)90253-9)

Details: Sus scrofa, Thermal, DSC, reversible: yes, whole UniProt chain shown
[1] = pH 6.5, sodium phosphate 5 mM, NaCl 100 mM
[2] = pH 7.1, sodium phosphate 5 mM, NaCl 100 mM

B1: Gastricsin wild type, P30879 (protein)
chain: SVIKVPLKKLKSIRQAMKEKGLLEEFLKTHKYDPAQRYRIGDISVALEPMAYLEAAYFGEISIGTPPQNFLVL
pH 6, sodium cacodylate 5 mM
  Tm: 66 °C
  unfolding enthalpy (calorimetric): 271 kcal/mol
  unfolding enthalpy (van 't Hoff): 174 kcal/mol
[1]
  Tm: 64.5 °C
  unfolding enthalpy (calorimetric): 256 kcal/mol
  unfolding enthalpy (van 't Hoff): 131 kcal/mol
pH 6.5, sodium phosphate 5 mM
  Tm: 61 °C
  unfolding enthalpy (calorimetric): 240 kcal/mol
  unfolding enthalpy (van 't Hoff): 125 kcal/mol
[2]
  Tm: 56.3 °C
  unfolding enthalpy (calorimetric): 202 kcal/mol
  unfolding enthalpy (van 't Hoff): 143 kcal/mol
